One test addresses T1, CXCL16 N-loop peptide (human, biotin-Ahx at the N-terminus; amidated at the C-terminus).
T1 construct: Synthetic peptide, captured on Neutravidin-coated ELISA plates
T1 peptide: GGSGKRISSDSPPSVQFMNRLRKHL
Kind of test: ELISA, biotinylated CXCL16 N-loop peptide on neutravidin plate, anti-human IgG-HRP, OD450 nm. The method, then: (§1) To evaluate the antibodies' binding to chemokine peptides, 96-well plates (ThermoFisher, 442404) were coated with 50 μl per well of a 2 μg/ml Neutravidin (Life Technologies, 31000) solution in PBS, overnight at room temperature. Plates were washed 4 times with washing buffer (PBS+0.05% Tween-20 [Sigma-Aldrich]) and incubated with 50 μl per well of a 50 nM biotinylated peptide solution in PBS for 1 h at room temperature. After washing 4 times with washing buffer, plates were incubated with 200 μl per well of blocking buffer (PBS+2% BSA+0.05% Tween-20) for 2 h at room temperature. Plates were then washed 4 times with washing buffer, and serial dilutions of monoclonal antibodies or plasma were added in PBS +0.05% Tween-20 and incubated for 1 h at room temperature. To screen for the presence of anti-chemokine IgGs, plasma samples were assayed (unless otherwise stated) at 1:50 starting dilution followed by 3 fourfold serial dilutions (1:200, 1:800, 1:3200). Monoclonal antibodies were tested at 5 μg/ml starting concentration followed by 11 threefold serial dilutions. Plates were subsequently washed 4 times with washing buffer and incubated with anti-human IgG secondary antibody conjugated to horseradish peroxidase (HRP) (GE Healthcare, NA933) at a 1:5000 dilution in PBS+0.05% Tween-20. Finally, after washing 4 times with washing buffer, plates were developed by the addition of 50 μl per well of the HRP substrate TMB (ThermoFisher, 34021) for 9 min. The developing reaction was stopped with 50 μl per well of a 1 M H₂SO₄ solution, and absorbance was measured at 450 nm with an ELISA microplate reader (BioTek) with Gen5 software. A positive control (broadly reactive plasma from donor CLM70) and a negative control (uninfected participant) samples were included in each experiment. The Area Under the Curve (AUC) was obtained from two independent experiments and plotted with GraphPad Prism.
A general note: In an ELISA, binding on a coated surface is turned into a signal by an enzyme label.

For another test, the target named is T2, CXCL13 N-loop peptide (human, biotin-Ahx at the N-terminus; amidated at the C-terminus).
T2 construct: Synthetic peptide, captured on Neutravidin-coated ELISA plates
T2 peptide: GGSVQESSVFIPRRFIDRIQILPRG
Kind of test: ELISA, biotinylated CXCL13 N-loop peptide on neutravidin plate, anti-human IgG-HRP, OD450 nm. The method, then: as §1

Test [1] deals with T3, CCL2 N-loop peptide (human, biotin-Ahx at the N-terminus; amidated at the C-terminus).
T3 peptide: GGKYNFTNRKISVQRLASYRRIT
Nature of the test: ELISA, biotinylated CCL2 N-loop peptide on neutravidin plate, OD450 nm. The protocol: as §1, with “Plates were subsequently washed 4 times with washing buffer and incubated with anti-human IgG secondary antibody conjugated to horseradish peroxidase (HRP) (GE Healthcare, NA933) at a 1:5000 dilution in PBS+0.05% Tween-20. Finally, after washing 4 times with washing buffer, plates were developed by the addition of 50 μl per well of the HRP substrate TMB (ThermoFisher, 34021) for 9 min.” left out, “A positive control (broadly reactive plasma from donor CLM70) and a negative control (uninfected participant) samples were included in each experiment. The Area Under the Curve (AUC) was obtained from two independent experiments and plotted with GraphPad Prism.” left out

The target of test [2] is T4, CCL7 N-loop peptide (human, biotin-Ahx at the N-terminus; amidated at the C-terminus).
T4 peptide: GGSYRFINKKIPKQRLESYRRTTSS
Nature of the test: ELISA, biotinylated CCL7 N-loop peptide on neutravidin plate, OD450 nm. The protocol:
as §1, with “Plates were subsequently washed 4 times with washing buffer and incubated with anti-human IgG secondary antibody conjugated to horseradish peroxidase (HRP) (GE Healthcare, NA933) at a 1:5000 dilution in PBS+0.05% Tween-20. Finally, after washing 4 times with washing buffer, plates were developed by the addition of 50 μl per well of the HRP substrate TMB (ThermoFisher, 34021) for 9 min.” left out, “A positive control (broadly reactive plasma from donor CLM70) and a negative control (uninfected participant) samples were included in each experiment. The Area Under the Curve (AUC) was obtained from two independent experiments and plotted with GraphPad Prism.” left out

Test [3] addresses T5, CCL11 N-loop peptide (human, biotin-Ahx at the N-terminus; amidated at the C-terminus).
T5 peptide: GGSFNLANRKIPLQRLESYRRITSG
Kind of test: ELISA, biotinylated CCL11 N-loop peptide on neutravidin plate, OD450 nm. The method, then: as §1, with “Plates were subsequently washed 4 times with washing buffer and incubated with anti-human IgG secondary antibody conjugated to horseradish peroxidase (HRP) (GE Healthcare, NA933) at a 1:5000 dilution in PBS+0.05% Tween-20. Finally, after washing 4 times with washing buffer, plates were developed by the addition of 50 μl per well of the HRP substrate TMB (ThermoFisher, 34021) for 9 min.” left out, “A positive control (broadly reactive plasma from donor CLM70) and a negative control (uninfected participant) samples were included in each experiment. The Area Under the Curve (AUC) was obtained from two independent experiments and plotted with GraphPad Prism.” left out

The target in test [4] is T6, CCL13 N-loop peptide (human, biotin-Ahx at the N-terminus; amidated at the C-terminus).
T6 peptide: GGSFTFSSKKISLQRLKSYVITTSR
Kind of test: ELISA, biotinylated CCL13 N-loop peptide on neutravidin plate, OD450 nm. The method, then:
as §1, with “Plates were subsequently washed 4 times with washing buffer and incubated with anti-human IgG secondary antibody conjugated to horseradish peroxidase (HRP) (GE Healthcare, NA933) at a 1:5000 dilution in PBS+0.05% Tween-20. Finally, after washing 4 times with washing buffer, plates were developed by the addition of 50 μl per well of the HRP substrate TMB (ThermoFisher, 34021) for 9 min.” left out, “A positive control (broadly reactive plasma from donor CLM70) and a negative control (uninfected participant) samples were included in each experiment. The Area Under the Curve (AUC) was obtained from two independent experiments and plotted with GraphPad Prism.” left out

Another test has as its target T7, CCL8 N-loop peptide (human, biotin-Ahx at the N-terminus; amidated at the C-terminus).
T7 construct: Synthetic peptide (GenScript), captured on Neutravidin-coated ELISA plates
T7 peptide: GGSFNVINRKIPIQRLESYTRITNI
Nature of the test: ELISA, biotinylated CCL8 N-loop peptide on neutravidin plate, anti-human IgG-HRP, OD450 nm. The method, then:
as §1

Test [5] concerns the target SARS-CoV-2 Spike (S) protein (SARS-CoV-2, UniProt P0DTC2 14-1208). Kind of test: ELISA on coated Spike protein (FIG. 2E).
Method: Plates were washed 4 times with washing buffer (PBS+0.05% Tween-20 [Sigma-Aldrich]) and incubated with 50 μl per well of a 50 nM biotinylated peptide solution in PBS for 1 h at room temperature. After washing 4 times with washing buffer, plates were incubated with 200 μl per well of blocking buffer (PBS+2% BSA+0.05% Tween-20) for 2 h at room temperature. Plates were then washed 4 times with washing buffer, and serial dilutions of monoclonal antibodies or plasma were added in PBS +0.05% Tween-20 and incubated for 1 h at room temperature. […] Monoclonal antibodies were tested at 5 μg/ml starting concentration followed by 11 threefold serial dilutions. Plates were subsequently washed 4 times with washing buffer and incubated with anti-human IgG secondary antibody conjugated to horseradish peroxidase (HRP) (GE Healthcare, NA933) at a 1:5000 dilution in PBS+0.05% Tween-20. […] The developing reaction was stopped with 50 μl per well of a 1 M H₂SO₄ solution, and absorbance was measured at 450 nm with an ELISA microplate reader (BioTek) with Gen5 software. […] The Area Under the Curve (AUC) was obtained from two independent experiments and plotted with GraphPad Prism.
Test [6] concerns the target T6, CCL13 N-loop peptide. Nature of the test: ELISA on biotinylated N-loop peptide (FIG. 2D). The protocol: as §1
The target of test [7] is T3, CCL2 N-loop peptide. Nature of the test: ELISA on biotinylated N-loop peptide (FIG. 2D). The method, then: as §1
In test [8] the target is T4, CCL7 N-loop peptide. Kind of test: ELISA on biotinylated N-loop peptide (FIG. 2D). The method, then: as §1
Test [9] addresses T5, CCL11 N-loop peptide. Kind of test: ELISA on biotinylated N-loop peptide (FIG. 2D). The protocol:
as §1

The results in this text go back to US20250298032A1 (INSTITUTE FOR RESEARCH IN BIOMEDICINE, published 2025).

B1: aCXCL16.001 (antibody, human IgG1, V domains shown)
VH: EVQLVESGGGLVKPGESLTLSCVASGYPFANAWMSWVRQAPGKGLEWVGRIKTKSEGETTDYAPLVRGRFTISRDDSKTTVFLQMNSLKTEDTGMYYCTTVFFWGRGTLVTVSS
VL: SYELTQPPSVSVSPGQTARITCSGDALSQQYLFWHQQRPGQAPKVVISKDTERPSGIPERFSGSISGTTGTLTISGVQTEDEADYYCHSTDISDSYWVFGGGTKLTVL
notes: also called anti-CXCL16 N-loop antibody
For the molecule B1, in the test with CXCL16 N-loop peptide, the “EC50 (read off the curve)” value is ~100 ng/mL.

B2: aCXCL13.003 (antibody, V domains shown)
VH: QVQLQEWGAGLLKPSETLSLTCAVYGGSFSGYYWSWIRQPPGKGLEWIGEINHSGSTNYNPSLKSRVTISVDTSKNQFSLKLSSVTAADTAVYYCARAGRSYGDYGAFDIWGQGTMVTVSS
VL: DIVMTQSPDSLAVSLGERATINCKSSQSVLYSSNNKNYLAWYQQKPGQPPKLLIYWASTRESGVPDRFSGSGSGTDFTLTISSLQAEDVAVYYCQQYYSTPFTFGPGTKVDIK
notes: also called anti-CXCL13 N-loop antibody
For B2, the binding result with CXCL13 N-loop peptide is given as “binds”.

B3: aCCL8.001 (antibody, human IgG1, V domains shown)
VH: QVQLQESGPGLVKPAETLSLTCTVSGDSVSSESYFWGWIRQSPRKGLEWLGAVWYNGDTYYNPSVGGRVTISMDTSMNEISLRLSSVTAADTAVYFCATEHCIDEICSPASDSWGQGTLVTVSS
VL: DIVMTQSPDSLAVSLGERATINCKSSQSVFFSSNNENCLAWFQQKPGQPPKLLIHWASTRASGVPDRFSGSGSGTDFTLTISSLQAEDVAVYYCHQYLKAPRTFGQGTKVEIK
notes: kappa (VK4-1); also called VH4-39/VK4-1 antibody; anti-CCL8 antibody
B3: the binding result in the test with CCL2 N-loop peptide [1], with CCL7 N-loop peptide [2], in the test with CCL11 N-loop peptide [3] and in the test with CCL13 N-loop peptide [4] was “no binding (tested: 5000 ng/ml)” each time. Also, the “EC50 (read off the curve)” value with CCL8 N-loop peptide is ~10 ng/mL.

B4: aCCL8.004 (antibody, human IgG1, V domains shown)
VH: QVQLQESGPGLVKPAETLSLTCIVSGDSVSSPSYFWGWIRQPPGKGLEWIGATWFNGDTYYNPSLQSRVSISMDMSLNRIYLSLNSVTAADTAVYFCATEHCFDEICSPASDSWGQGTLVTVSS
VL: DIVMTQSPDSLAVSLGERATISCMSSQSVFFSSNNENCLAWFQQKPGQPPKLLIYWASTRASGVPDRFSGSGSGTDFTLTISSLQAEDVAVYYCQQYLKAPRTFGQGTKVEIK
notes: also called VH4-39/VK4-1 antibody; anti-CCL8 antibody
On to B4, for which the binding result is “no binding” in test [5]; “no binding (tested: 5 µg/ml starting concentration)” with CCL13 N-loop peptide [6]; “no binding (tested: 5 µg/ml starting concentration)” with CCL2 N-loop peptide [7]; “no binding (tested: 5 µg/ml starting concentration)” with CCL7 N-loop peptide [8]; “no binding (tested: 5 µg/ml starting concentration)” in the test with CCL11 N-loop peptide [9]. In addition, the “EC50 (read off the curve)” value with CCL8 N-loop peptide was ~10 ng/mL.

B5: aCCL8.003 (antibody, human IgG1, V domains shown)
VH: QLQLQESGPGLVKPSETLSLTCTVSGDSVSSSFYFWGWVRQPPGKGLEWIGSIYYTGDTYYKPSLKSRVTISMNTSKNQFSLRLSSVTAADTAVYYCATEFCTSGICHPASDSWGQGTLVTVSS
VL: DIVMTQSPDSLAVSLGERATINCKSSQSVLLSANNKNCLAWFQQKPGQPPKLLIYWASTRESGVPDRFSGSGSGTDFTLTISSLQAEDVAIYYCQQYYKAPRTFGQGTKVEIK
notes: as for B4
In the case of B5, the binding result in test [5] is on record as “no binding”; with CCL13 N-loop peptide [6], “no binding (tested: 5 µg/ml starting concentration)”; with CCL2 N-loop peptide [7], “no binding (tested: 5 µg/ml starting concentration)”; in the test with CCL7 N-loop peptide [8], “no binding (tested: 5 µg/ml starting concentration)”; in the test with CCL11 N-loop peptide [9], “no binding (tested: 5 µg/ml starting concentration)”. In the test with CCL8 N-loop peptide, the “EC50 (read off the curve)” value was ~10 ng/mL.

B6: aCCL8.005 (antibody, human IgG1, V domains shown)
VH: QLQLQESGPGLVKPSETLSLTCTVSGDSVSSSFYFWGWVRQPPGKGLEWIGGTYYTGDTYHNPSLKSRLTISMDTSKNQFSLRLSSVTAADTAVYYCATEFCINGICRPASDSWGQGTLVTVSS
VL: DIVMTQSPDSLAVSLGERATINCKSSQSVLLSSNNKNCLAWFQQRPGQPPKLLIYWASTRESGVPDRFSGSGSGTDFTLTISSLQAEDVAIYYCQQYYKAPRTFGQGTKVEIK
notes: as for B4
For the molecule B6, the binding result in the test with CCL2 N-loop peptide [1], in the test with CCL7 N-loop peptide [2], with CCL11 N-loop peptide [3] and with CCL13 N-loop peptide [4] was “no binding (tested: 5000 ng/ml)” each time. Further, the “EC50 (read off the curve)” value with CCL8 N-loop peptide was ~10 ng/mL.

As a reminder, the EC50 (read off the curve) is the concentration needed to bring the measured effect to its halfway point. Read a low EC50 (read off the curve) as greater potency.
